Here are results for eleven molecules from patent publication US20240400708A1.

B1: feline IgG1a H436R (antibody, part only; not given: Variable domains, not shown: another chain or arm of the molecule)
constant: ASTTAPSVFPLAPSCGTTSGATVALACLVLGYFPEPVTVSWNSGALTSGVHTFPAVLQASGLYSLSSMVTVPSSRWLSDTFTCNVAHPPSNTKVDKTVRKTDHPPGPKPCDCPKCPPPEMLGGPSIFIFPPKPKDTLSISRTPEVTCLVVDLGPDDSDVQITWFVDNTQVYTAKTSPREEQFNSTYRVVSVLPILHQDWLKGKEFKCKVNSKSLPSPIERTISKAKGQPHEPQVYVLPPAQEELSRNKVSVTCLIKSFHPPDIAVEWEITGQPEPENNYRTTPPQLDSDGTYFVYSKLSVDRSHWQRGNTYTCSVSHEALHSHRTQKSLTQSPGK
B2: feline IgG1a T250V (antibody, part only; not given: Variable domains, not shown: another chain or arm of the molecule)
constant: ASTTAPSVFPLAPSCGTTSGATVALACLVLGYFPEPVTVSWNSGALTSGVHTFPAVLQASGLYSLSSMVTVPSSRWLSDTFTCNVAHPPSNTKVDKTVRKTDHPPGPKPCDCPKCPPPEMLGGPSIFIFPPKPKDVLSISRTPEVTCLVVDLGPDDSDVQITWFVDNTQVYTAKTSPREEQFNSTYRVVSVLPILHQDWLKGKEFKCKVNSKSLPSPIERTISKAKGQPHEPQVYVLPPAQEELSRNKVSVTCLIKSFHPPDIAVEWEITGQPEPENNYRTTPPQLDSDGTYFVYSKLSVDRSHWQRGNTYTCSVSHEALHSHHTQKSLTQSPGK
B3: feline IgG1a P247V (antibody, part only; not given: Variable domains, not shown: another chain or arm of the molecule)
constant: ASTTAPSVFPLAPSCGTTSGATVALACLVLGYFPEPVTVSWNSGALTSGVHTFPAVLQASGLYSLSSMVTVPSSRWLSDTFTCNVAHPPSNTKVDKTVRKTDHPPGPKPCDCPKCPPPEMLGGPSIFIFPPKVKDTLSISRTPEVTCLVVDLGPDDSDVQITWFVDNTQVYTAKTSPREEQFNSTYRVVSVLPILHQDWLKGKEFKCKVNSKSLPSPIERTISKAKGQPHEPQVYVLPPAQEELSRNKVSVTCLIKSFHPPDIAVEWEITGQPEPENNYRTTPPQLDSDGTYFVYSKLSVDRSHWQRGNTYTCSVSHEALHSHHTQKSLTQSPGK
B4: feline IgG1a T250Q (antibody, part only; not given: Variable domains, not shown: another chain or arm of the molecule)
constant: ASTTAPSVFPLAPSCGTTSGATVALACLVLGYFPEPVTVSWNSGALTSGVHTFPAVLQASGLYSLSSMVTVPSSRWLSDTFTCNVAHPPSNTKVDKTVRKTDHPPGPKPCDCPKCPPPEMLGGPSIFIFPPKPKDQLSISRTPEVTCLVVDLGPDDSDVQITWFVDNTQVYTAKTSPREEQFNSTYRVVSVLPILHQDWLKGKEFKCKVNSKSLPSPIERTISKAKGQPHEPQVYVLPPAQEELSRNKVSVTCLIKSFHPPDIAVEWEITGQPEPENNYRTTPPQLDSDGTYFVYSKLSVDRSHWQRGNTYTCSVSHEALHSHHTQKSLTQSPGK
B5: feline IgG1a L432S (antibody, part only; not given: Variable domains, not shown: another chain or arm of the molecule)
constant: ASTTAPSVFPLAPSCGTTSGATVALACLVLGYFPEPVTVSWNSGALTSGVHTFPAVLQASGLYSLSSMVTVPSSRWLSDTFTCNVAHPPSNTKVDKTVRKTDHPPGPKPCDCPKCPPPEMLGGPSIFIFPPKPKDTLSISRTPEVTCLVVDLGPDDSDVQITWFVDNTQVYTAKTSPREEQFNSTYRVVSVLPILHQDWLKGKEFKCKVNSKSLPSPIERTISKAKGQPHEPQVYVLPPAQEELSRNKVSVTCLIKSFHPPDIAVEWEITGQPEPENNYRTTPPQLDSDGTYFVYSKLSVDRSHWQRGNTYTCSVSHEASHSHHTQKSLTQSPGK
B6: feline IgG1a T437A (antibody, part only; not given: Variable domains, not shown: another chain or arm of the molecule)
constant: ASTTAPSVFPLAPSCGTTSGATVALACLVLGYFPEPVTVSWNSGALTSGVHTFPAVLQASGLYSLSSMVTVPSSRWLSDTFTCNVAHPPSNTKVDKTVRKTDHPPGPKPCDCPKCPPPEMLGGPSIFIFPPKPKDTLSISRTPEVTCLVVDLGPDDSDVQITWFVDNTQVYTAKTSPREEQFNSTYRVVSVLPILHQDWLKGKEFKCKVNSKSLPSPIERTISKAKGQPHEPQVYVLPPAQEELSRNKVSVTCLIKSFHPPDIAVEWEITGQPEPENNYRTTPPQLDSDGTYFVYSKLSVDRSHWQRGNTYTCSVSHEALHSHHAQKSLTQSPGK
B7: feline IgG1a P247I (antibody, part only; not given: Variable domains, not shown: another chain or arm of the molecule)
constant: ASTTAPSVFPLAPSCGTTSGATVALACLVLGYFPEPVTVSWNSGALTSGVHTFPAVLQASGLYSLSSMVTVPSSRWLSDTFTCNVAHPPSNTKVDKTVRKTDHPPGPKPCDCPKCPPPEMLGGPSIFIFPPKIKDTLSISRTPEVTCLVVDLGPDDSDVQITWFVDNTQVYTAKTSPREEQFNSTYRVVSVLPILHQDWLKGKEFKCKVNSKSLPSPIERTISKAKGQPHEPQVYVLPPAQEELSRNKVSVTCLIKSFHPPDIAVEWEITGQPEPENNYRTTPPQLDSDGTYFVYSKLSVDRSHWQRGNTYTCSVSHEALHSHHTQKSLTQSPGK
B8: feline IgG1a T250S (antibody, part only; not given: Variable domains, not shown: another chain or arm of the molecule)
constant: ASTTAPSVFPLAPSCGTTSGATVALACLVLGYFPEPVTVSWNSGALTSGVHTFPAVLQASGLYSLSSMVTVPSSRWLSDTFTCNVAHPPSNTKVDKTVRKTDHPPGPKPCDCPKCPPPEMLGGPSIFIFPPKPKDSLSISRTPEVTCLVVDLGPDDSDVQITWFVDNTQVYTAKTSPREEQFNSTYRVVSVLPILHQDWLKGKEFKCKVNSKSLPSPIERTISKAKGQPHEPQVYVLPPAQEELSRNKVSVTCLIKSFHPPDIAVEWEITGQPEPENNYRTTPPQLDSDGTYFVYSKLSVDRSHWQRGNTYTCSVSHEALHSHHTQKSLTQSPGK
B9: feline IgG1a T250E (antibody, part only; not given: Variable domains, not shown: another chain or arm of the molecule)
constant: ASTTAPSVFPLAPSCGTTSGATVALACLVLGYFPEPVTVSWNSGALTSGVHTFPAVLQASGLYSLSSMVTVPSSRWLSDTFTCNVAHPPSNTKVDKTVRKTDHPPGPKPCDCPKCPPPEMLGGPSIFIFPPKPKDELSISRTPEVTCLVVDLGPDDSDVQITWFVDNTQVYTAKTSPREEQFNSTYRVVSVLPILHQDWLKGKEFKCKVNSKSLPSPIERTISKAKGQPHEPQVYVLPPAQEELSRNKVSVTCLIKSFHPPDIAVEWEITGQPEPENNYRTTPPQLDSDGTYFVYSKLSVDRSHWQRGNTYTCSVSHEALHSHHTQKSLTQSPGK
B10: feline IgG1a T250I (antibody, part only; not given: Variable domains, not shown: another chain or arm of the molecule)
constant: ASTTAPSVFPLAPSCGTTSGATVALACLVLGYFPEPVTVSWNSGALTSGVHTFPAVLQASGLYSLSSMVTVPSSRWLSDTFTCNVAHPPSNTKVDKTVRKTDHPPGPKPCDCPKCPPPEMLGGPSIFIFPPKPKDILSISRTPEVTCLVVDLGPDDSDVQITWFVDNTQVYTAKTSPREEQFNSTYRVVSVLPILHQDWLKGKEFKCKVNSKSLPSPIERTISKAKGQPHEPQVYVLPPAQEELSRNKVSVTCLIKSFHPPDIAVEWEITGQPEPENNYRTTPPQLDSDGTYFVYSKLSVDRSHWQRGNTYTCSVSHEALHSHHTQKSLTQSPGK
B11: feline IgG1a P247L (antibody, part only; not given: Variable domains, not shown: another chain or arm of the molecule)
constant: ASTTAPSVFPLAPSCGTTSGATVALACLVLGYFPEPVTVSWNSGALTSGVHTFPAVLQASGLYSLSSMVTVPSSRWLSDTFTCNVAHPPSNTKVDKTVRKTDHPPGPKPCDCPKCPPPEMLGGPSIFIFPPKLKDTLSISRTPEVTCLVVDLGPDDSDVQITWFVDNTQVYTAKTSPREEQFNSTYRVVSVLPILHQDWLKGKEFKCKVNSKSLPSPIERTISKAKGQPHEPQVYVLPPAQEELSRNKVSVTCLIKSFHPPDIAVEWEITGQPEPENNYRTTPPQLDSDGTYFVYSKLSVDRSHWQRGNTYTCSVSHEALHSHHTQKSLTQSPGK

In this assay the target is feline FcRn complex (FcRn-α subunit and β-microglobulin), biotin labeled (feline). Description: SPR, pH 6. On the technique in general: In SPR one partner is held on a chip, and binding of the other changes the refractive index at the surface.
Molecule B1 yielded a Kd of 5.69 nM.

B2 had a Kd of 6.87 nM.

Turning to B3, the dissociation constant (Kd) was 5.21 nM.

The molecule B4 displayed a Kd of 4.35 nM.

B5 had a Kd of 6.58 nM.

Turning to B6, the Kd is 8.79 nM.

Consider B7, for which the Kd was found to be 4.51 nM.

Consider B8, for which the Kd was 4.94 nM.

B9 came in with a Kd of 6.07 nM.

In turn, B10 came in with a Kd of 4.66 nM.

B11 gave a Kd of 4.72 nM.

Usually Kd stands for the constant that tells how readily two partners part at equilibrium.
